Target: the molecule itself
Assay: native MS

B1: outer membrane porin F (OmpF) (natural protein)
chain: AEIYNKDGNKVDLYGKAVGLHYFSKGNGENSYGGNGDMTYARLGFKGETQINSDLTGYGQWEYNFQGNNSEGADAQTGNKTRLAFAGLKYADVGSFDYGRNYGVVYDALGYTDMLPEFGGDTAYSDDFFVGRVGGVATYRNSNFFGLVDGLNFAVQYLGKNERDTARRSNGDGVGGSISYEYEGFGIVGAYGAADRTNLQEAQPLGNGKKAEQWATGLKYDANNIYLAANYGETRNATPITNKFTNTSGFANKTQDVLLVAQYQFDFGLRPSIAYTKSKAKDVEGIGDVDLVNYFEVGATYYFNKNMSTYVDYIINQIDSDNKLGVGSDDTVAVGIVYQF
  stoichiometry N: 3
